Experiments:
mouse platelets = experiment: Reversal of ADP-induced aggregation of mouse platelets in vitro; assay type: cell-based; conditions: 5 μM ADP; soluble CD39 2.5 or 1.25 μg/ml
Protocol: ADP (5 μM) was added to mouse platelets in vitro to induce an aggregation response. Soluble CD39 (2.5 μg/ml or 1.25 μg/ml) was added at the peak of the aggregation response.

[1] = system: injured coronary artery segments; experiment: Percutaneous transluminal coronary angioplasty (balloon injury) study
Excerpt: Porcine platelets and fibrinogen were labeled with ^111Indium and ^125Iodine respectively for infusion into pigs. […] Oral ASA was given to all pigs for at least three day prior to the coronary angioplasty procedure, and heparin (100 U/kg) was given at the time of the angioplasty. One to three days prior to the angioplasty an external jugular line was inserted to administer the labeled platelets and fibrin, CD39 or saline, and to facilitate blood draws. Labeled platelets and fibrinogen were given approximately 18 hours prior to balloon injury. Coronary arteries were injured using an oversize balloon. A coronary guide catheter was first advanced into the ascending aorta. An oversized balloon was then advanced into a coronary vessel and inflated at 6 to 8 atmospheres for a total of thirty seconds. The balloon was then deflated and withdrawn. The average ratio of balloon size to vessel size was 1.32 for the placebo group and 1.29 for the CD39 group.
Platelet aggregation and bleeding time were measured 30 minutes after administration. […] Moreover, no bleeding was noted during PTCA or after sheath removal and there was no significant difference in hematocrit or platelet counts between the groups.
After the radioactivity decayed, toluidine-blue stained injured coronary artery segments were examined histologically, in order to further characterize the extent of thrombus formation. A blinded observer qualitatively evaluated the degree of histologic injury in the coronary segments by assessing, on a scale of 1-4 with 4 being the most severe injury, the severity of medial and internal elastic lamina tear, medial separation, and hemorrhage. A composite injury score was obtained by totaling, the three individual scores. The medial injury scores for the placebo and CD39 groups were 2.5 and 2.2 respectively; medial separation scores for the placebo and CD39 groups were 2.0 and 1.6 respectively; the degree of hemorrhage for the placebo and CD39 groups were 2.3 and 2.5 respectively. The composite injury scores for the placebo and CD39 groups were […] and 6.2 respectively. These in vivo results correlate well with results, reported herein, obtained in vitro and ex vivo.

[2] = design: species or system Balb/c mice; conditions: mouse, in vivo, iv
Protocol: At various times after injection (5, 10, 30 min, 1, 2, 4, 8, 24 h), pairs of mice were bled by cardiac puncture and euthanized. Serum was prepared from each blood sample and frozen until assay. […] The data were fit using […], Monterey, Calif.). The best fit was derived using double exponential decay. Where indicated, specificity of enzyme activity was determined by incubating serum samples with anti-CD39 mAb-coated beads to remove CD39 prior to testing for ATPase activity.

[3] = design: species or system pigs; conditions: pig, in vivo
Protocol: (§1) Aspirin was administered orally on a daily basis. Placebo controls consisted of aspirin. Saline controls and solCD39 were administered as a single bolus. Time points were measured following this administration. Blood samples were obtained via an external jugular vein catheter. […] ADP-induced platelet aggregation was measured at specific time intervals following administration. The concentration of CD39 in serum as a function of time was measured using an ELISA assay. Distribution and clearance half-lives were determined using a biphasic curve fit.

[4] = TLC assay for ATPase activity; assay type: biochemical
Protocol: (§2) Following growth in selective medium, CM from CHO cell cultures was analyzed for ATPase and ADPase activities. ADPase assays (Marcus et al., J. Clin. Invest. 88:1690, 1991) were primarily used in determining enzyme kinetics and pharmacokinetics. Test samples were incubated with 50 μM [^14C] ADP (NEN Life Science Products) in assay buffer (15 mM Tris, 134 mM NaCl, 5 mM glucose, pH 7.4, containing 10 μM Ap5A (P^1,P^5-di[adenosine-5′]pentaphosphate, 1 mM ouabain, 10 μM dipyridamole, and 3 mM CaCl2) in a total volume of 50 μl (5 min, 37° C.). Reactions were stopped by placement on ice and addition of 10 μl “stop solution” (160 mM disodium EDTA, pH 7.0, 17 mM ADP, 0.15 M NaCl) to block further metabolism of ADP. Nucleotides, nucleosides, and bases were separated by TLC using isobutanol/1-pentanol/ethylene glycol monoethyl ether/NH4OH/H2O (90:60:180:90:120). Radioactivity was quantified by radio TLC scanning (RTLC multiscanner; Packard, Meriden, Conn.). Results were calculated as averages of duplicate to quadruplicate measurements after subtraction of buffer blanks (consistently <1% of total radioactivity). Data were expressed as percentage of ADP metabolized or as pmol ADP metabolized per minute per μl CM. A unit of activity is the quantity of enzyme which will degrade 1 μmol of ADP in 1 min at 37° C. Identical assays were performed using ATP as a substrate in order to examine the kinetics of the ATPase activity of CD39.
(§3) Using the TLC assay system described in Example 12B, the ADPase activity of the membrane-bound HUVEC ecto-ADPase was determined at different pHs in buffers containing 100 mM bis-trispropane (Sigma, St. Louis, Mo.). […] Kinetic constants for CD39 metabolism of ATP and ADP were determined by measuring the initial rates of reaction as analyzed in the TLC system.

platelets = experiment: ADP-induced platelet aggregation after solCD39 bolus in pigs; assay type: in vivo, Yorkshire-Hampshire pigs; conditions: high dose solCD39
Protocol: as §1, with “assay.” for “assay. Distribution and clearance half-lives were determined using a biphasic curve fit.”

[5] = TLC assay for ADPase activity; assay type: biochemical
Protocol: as §2, §3

[6] = Mouse lung ischemia-reperfusion survival model; assay type: in vivo, C57BL/6 mice; conditions: 8 mg/kg i.v.
Protocol: C57BL/6 mice were anesthetized and ventilated, and their thoraces were opened to surgically expose both pulmonary hila. Either physiological saline or soluble CD39 (8 mg/kg) was administered intravenously, after which the left pulmonary hilum was cross-clamped for one hour. The cross-clamp was removed for three hours of reperfusion, and then a cross-clamp was applied to the right hilum for a thirty minute observation period. This latter maneuver effectively removed the normal lung from circulation, so that the mouse must survive on the function of the post-ischemic left lung. The results are shown, in the form of a Kaplan-Meier survival plot, in FIG. 23.

[7] = 670 μg/kg i.v. plus heparin and ASA, 24 hours after balloon injury

B1: solCD39: recombinant soluble human CD39, untagged: 12 mature huIL2 residues, three amino acid linker, sol CD39 (SEQ ID NO:7) (protein)
chain: MALWIDRMQLLSCIALSLALVTNSAPTSSSTKKTQLTSSTQNKALPENVKYGIVLDAGSSHTSLYIYKWPAEKENDTGVVHQVEECRVKGPGISKFVQKVNEIGIYLTDCMERAREVIPRSQHQETPVYLGATAGMRLLRMESEELADRVLDVVERSLSNYPFDFQGARIITGQEEGAYGWITINYLLGKFSQKTRWFSIVPYETNNQETFGALDLGGASTQVTFVPQNQTIESPDNALQFRLYGKDYNVYTHSFLCYGKDQALWQKLAKDIQVASNEILRDPCFHPGYKKVVNVSDLYKTPCTKRFEMTLPFQQFEIQGIGNYQQCHQSILELFNTSYCPYSQCAFNGIFLPPLQGDFGAFSAFYFVMKFLNLTSEKVSQEKVTEMMKKFCAQPWEEIKTSYAGVKEKYLSEYCFSGTYILSLLLQGYHFTADSWEHIHFIGKIQGSDAGWTLGYMLNLTNMIPAEQPLSTPLSHST
Mouse platelets
  aggregation response when added at the peak: immediately reversed
[1]; [7]
  Fibrin Deposition Ratio: 0.62 ± 0.10
  Platelet Deposition Ratio: 1.25 ± 0.19
[1]; 30 minutes after administration
  Bleeding Time: 7.00 ± 0.81
[1]; histology, scale of 1-4
  medial injury score: 2.2
  medial separation score: 1.6
[1]; pig, in vivo
  degree of hemorrhage: 2.5
[1]; pigs, PTCA
  tolerability: well tolerated
[1]; total of three scores
  composite injury score: 6.2
[2]
  apyrase activity cleared from the circulation during distribution phase: 55-65%
[2]; 50 ug
  t1/2α (distribution phase), ADPase assay: 43 min
  t1/2α (distribution phase), ATPase assay: 59 min
[3]
  elimination half-life of biological activity (ADPase activity): 5-7 days
  t1/2α (distribution phase): 29 min
[4]; 2×10^−9 M solCD39
  Vmax for ATP: 26 pmol/min
  kcat (ATP): 4.33 s⁻¹
[4]; purified recombinant solCD39
  specific activity for ATP: 4 U/mg
platelets
  inhibition of platelet aggregation at two weeks: 30%
[5]; 2×10^−9 M solCD39
  Vmax for ADP: 72 pmol/min
  kcat (ADP): 12 s⁻¹
[5]; purified recombinant solCD39
  specific activity for ADP: 11 U/mg
[6]
  survival at thirty minutes on post-ischemic lung: survived

From patent publication US7264809B1, “Methods of inhibiting platelet activation and recruitment” (Immunex Corporation, priority 1998, dated 2007)
